Reference: patent US20050287643A1 (YALE UNIVERSITY, published 2005)

How the values were obtained:
[1] = molecular target: T1, Mena1-112 EVH1 domain (UniProt Q03173 1-112); experiment: fluorescence polarization competition against pGolemi^Flu
T1 construct: range 1-112

[2] = molecular target: KIX domain of CBP (Homo sapiens (Human), UniProt Q92793 587-666); experiment: method not stated (supplemental information)
[3] = molecular target: T1, Mena1-112 EVH1 domain; experiment: tryptophan fluorescence perturbation

T1 sequence (Q03173 1-112 limits assumed): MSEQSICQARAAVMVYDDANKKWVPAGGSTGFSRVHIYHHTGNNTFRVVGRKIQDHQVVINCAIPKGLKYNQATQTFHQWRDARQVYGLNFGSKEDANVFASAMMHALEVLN
Chain of KIX domain of CBP (Q92793 587-666 limits assumed, form in doubt): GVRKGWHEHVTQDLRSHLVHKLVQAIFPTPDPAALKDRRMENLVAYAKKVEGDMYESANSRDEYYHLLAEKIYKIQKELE

B1: ActA11 (peptide)
peptide: FEFPPPPTDEE
notes: domain: PPII repeat 2; also called 11 residue peptide comprising PPII repeat 2 of L. monocytogenes ActA
Q: B1 was tested. Which IC50 [1] did it give?
A: 4 µM

B2: pGolemi (designed binder)
chain: PFPPTPPGEEAPVEDLIRFYNDLQQYLNVV
Q: How did the Kd [2] turn out when B2 was run?
A: 15 µM

B3: PPII7 (peptide)
peptide: PFPPTPP
Q: B3 was tested. Which Kd [3] did it give?
A: 480 µM
